Reference: the supplement of paper PMC10567573

B1: CDKN1A (parent)
chain: GRKRRQTSMTDFYHSKRRLIFSKR
B2: SLC6A17 (parent)
chain: KAVEEELDAEDRPAWNSKLQYILA

Variants of: B1
Assay: protein stability index of a GFP-peptide fusion (GPS, HEK-293T) (PSI 1-6); higher = more stable
Settings: c terminus: a fixed tail appended
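Also: lentivirally expressed fusions sorted by FACS into six bins by GFP to DsRed ratio, PSI derived from sequencing read proportions per bin multiplied by bin number.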

Protein stability index of substitutions, site by site:
K3: C 3.54 | I 2.76 | F 2.4 | E 2.19 | P 2.16 | T 2.5 | A 3.12 | L 3.18 | Q 2.98 | H 3.57 | M 2.76 | S 3.96 | D 3.2 | N 2.73
G1: F 2.85 | M 2.88 | Q 3.03 | E 3.02 | C 3.45 | A 2.81 | R 3.87 | H 3.16 | W 3.87 | T 2.06 | S 3.84 | I 2.94 | Y 2.99 | P 3.63 | L 2.86 | D 3.06 | V 2.06 | N 2.55 | K 3.34
R2: W 2.53 | F 3.25 | G 3.19 | Y 2.22 | A 2.05 | M 3.79 | E 4.5 | S 3.05 | H 2.33 | T 2.8 | N 2.74 | C 3.93 | L 2.6 | K 3.08 | V 3.22 | D 2.78

Variants of: B2
Assay: as above
Settings: c terminus: a fixed tail appended

Protein stability index of substitutions, site by site:
I22: P 4.44 | F 2.2 | L 2.83 | R 4.15 | E 5.01 | A 3.8 | M 1.79 | C 3.13 | T 4.4 | W 2.9 | G 4.06 | K 3.78 | V 3.04 | H 4.5 | Y 3.94 | N 4.41 | D 4.86
Q20: F 1.9 | W 1.56 | M 2.16 | N 2.9 | P 3.25 | Y 2.4 | T 2.25 | G 2.32 | E 2.89 | I 1.57 | D 3.56 | L 1.88 | H 2.53 | R 3.39 | C 2.13 | K 2.92 | A 2.06 | S 2.71 | V 2.13
L19: P 3.4 | N 4.2 | K 3.99 | W 2.48 | C 3.56 | S 2.75 | F 2.96 | Y 2.52 | T 3.83 | H 3.69 | R 3.63 | I 2.52 | Q 3.92 | E 4.27 | M 2.8 | A 3.8 | V 2.28 | D 4.1
S17: V 2.46 | Y 2.16 | T 2.25 | E 4.48 | L 1.99 | C 1.99 | Q 2.32 | W 1.82 | H 2.23 | I 1.83 | P 2.97 | F 2.5 | N 3.15 | R 3.4 | K 2.19 | D 3.17 | M 2.33 | G 2.75 | A 2.55
A14: K 2.62 | M 2.1 | P 2.46 | I 2.5 | G 2.35 | L 1.99 | R 2.3 | S 4.07 | N 2.2 | D 3.38 | H 2.57 | T 3.2 | Y 2 | Q 2.4 | F 2.18 | E 3.08 | V 2.38
E10: V 1.9 | H 1.84 | K 2.5 | I 1.86 | L 2.15 | C 2.23 | A 2.27 | N 2.57 | Q 1.67 | D 2.52 | R 2.83 | Y 1.93 | M 1.47 | F 2.63 | P 2.28 | T 2.44 | G 3.72 | W 1.76
D11: M 1.69 | V 2 | Q 2.12 | S 1.98 | F 2.07 | L 1.79 | T 2.65 | H 2.59 | R 2.54 | W 2.16 | N 2.28 | G 3.55 | Y 1.42 | I 2.54 | K 2.67 | C 1.99 | P 2.02 | A 3.08
P13: S 2.27 | F 2.63 | C 2.28 | I 1.42 | L 1.85 | A 1.54 | D 2.72 | T 3.06 | W 2.88 | Y 2.65 | K 2.57 | M 2.79 | R 2.44 | G 2.71 | N 2.31 | H 2.21 | E 2.41
W15: C 3.64 | F 3.1 | P 3.68 | I 3.69 | M 3.74 | S 3.92 | V 2.2 | T 3.46 | Y 2.77 | D 3.94 | L 2.52 | Q 4.04 | K 3.99 | H 4.06 | N 4.13 | E 4.65 | R 3.62 | A 3.89 | G 3.82
L23: T 3.91 | M 2.6 | G 3.99 | R 4.42 | V 3.17 | K 3.89 | A 3.9 | S 4.23 | N 4.18 | C 3.59 | D 4.9 | P 3.97 | E 4.91 | F 3.03 | W 3.19 | Q 3.82 | I 2.64 | H 3.84 | Y 3.01
Y21: N 3.42 | C 4.37 | L 2.83 | A 3.99 | P 4.58 | I 3.09 | D 3.92 | H 3.16 | R 2.8 | S 3.92 | V 2.08 | F 2.9 | M 3.4 | K 3.67 | Q 2.75
A9: T 2.82 | L 2.33 | E 2.61 | Y 2.48 | G 2.24 | Q 2.44 | N 2.83 | P 2.54 | V 3.1 | K 3.15 | R 2.69 | M 1.73 | I 2.02 | H 2.41 | F 1.95 | W 2.06
N16: M 2.37 | V 2.58 | H 2.83 | A 2.25 | T 2.07 | C 2.08 | K 2.52 | D 3.45 | R 2.75 | S 3.01 | F 2.14 | W 2.05 | I 2.05 | Q 2.1 | Y 2.09 | P 2.75 | L 2.06 | E 2.81
A24: H 2.15 | D 3.55 | T 2.85 | F 2.73 | N 3.48 | S 2.82 | R 3.27 | Y 2.18 | E 2.63 | L 2.28 | V 1.68 | M 2.06 | P 3.25 | C 2.46 | K 3.08 | W 2.06 | G 3.52 | I 2.23
R12: T 3.82 | F 1.76 | Y 2.2 | I 2.47 | S 3.4 | K 2.83 | L 2.45 | D 3.74 | E 3.95 | Q 3.15 | A 3.54 | H 2.41 | G 2.32 | P 2.44 | N 2.97 | V 2.54 | W 2.19 | M 2.19 | C 2.8
K18: E 3.76 | H 2.7 | Q 3.22 | V 1.64 | I 2.13 | F 2.17 | W 2.53 | M 2.27 | S 3.07 | N 4.01 | T 3.05 | C 3.19 | Y 3.15 | R 2.69 | A 3.16 | P 3.77 | L 1.98 | D 4
